Results from publication PMC9263151, “Structural and biochemical analyses of the flagellar expression regulator DegU from Listeria monocytogenes”.

Assays:
[1] = molecular target: DNA-binding domain of Listeria monocytogenes DegU (lmDegUDBD) (Listeria monocytogenes ATCC 15313) (UniProt Q6DL91); assay: crystal structure; lmDegUDBD alone, two chains (A and B) in the asymmetric unit; crystals from 22% PEG 3350, 0.1 M Tris pH 8.0, 18 °C; 2.39 Å
[2] = molecular target: DNA-binding domain of Listeria monocytogenes DegU (lmDegUDBD) (Listeria monocytogenes ATCC 15313) (UniProt Q6DL91); assay: cross-linking; 5 μg protein in 20 mM Hepes pH 7.4, 300 mM sodium chloride, 5 mM β-mercaptoethanol with EDC and sulfo-NHS, 5 min at room temperature; SDS-PAGE, Coomassie staining
lmDegUDBD = molecular target: T1, lmDegUDBD (Listeria monocytogenes ATCC 15313, UniProt Q6DL91 159-228); assay: fluorescence polarization; conditions: protein: recombinant; tags: N-terminal His6 removed by thrombin; chain copies: 2; blunt
T1 sequence: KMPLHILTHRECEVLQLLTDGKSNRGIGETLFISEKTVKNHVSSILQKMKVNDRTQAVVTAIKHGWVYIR

lmDegUFL = lmDegUFL (Listeria monocytogenes ATCC 15313, UniProt Q6DL91 1-228); assay: fluorescence polarization; unphosphorylated; conditions: protein: recombinant; tags: C-terminal His6; chain copies: 2; blunt
lmDegUFL D55N = lmDegUFL D55N (Listeria monocytogenes ATCC 15313, UniProt Q6DL91 1-228, D55N); assay: fluorescence polarization; comparable to lmDegUFL; conditions: protein: recombinant; tags: C-terminal His6; chain copies: 2; blunt
lmDegUFL D55E = lmDegUFL D55E (Listeria monocytogenes ATCC 15313, UniProt Q6DL91 1-228, D55E); assay: fluorescence polarization; affinity not significantly changed vs lmDegUFL; conditions: protein: recombinant; tags: C-terminal His6; chain copies: 2; blunt
lmDegURD = lmDegURD (Listeria monocytogenes ATCC 15313, UniProt Q6DL91 1-143); assay: EMSA; no shift; conditions: protein: recombinant; tags: N-terminal His6 removed by TEV; chain copies: 2; blunt

## DNA-binding domain of Listeria monocytogenes DegU (lmDegUDBD) (from UniProt Q6DL91 159-228) (domain or fragment)
[1]
  stoichiometry N: 2
[2]
  stoichiometry N: 2

B1: fliN-gmaR operator 36-bp dsDNA, fluorescein (dsDNA)
DNA 1: CGAGTAGGTCAAAAGGATTGGGTATGAAGAACCTTT
DNA 2: AAAGGTTCTTCATACCCAATCCTTTTGACCTACTCG
lmDegUDBD
  Kd: 6.7 ± 2.3 µM
lmDegUFL
  Kd: 0.173 ± 0.026 µM
lmDegUFL D55N
  binding result: binds
lmDegUFL D55E
  binding result: binds

B2: fliN-gmaR operator 36-bp dsDNA, unlabeled (dsDNA)
DNA 1: B1 DNA 1
DNA 2: B1 DNA 2
lmDegURD
  binding result: no binding
